Test results: the nanobody polyreactivity screen of Harvey et al. (2022)

Assay: yeast display, Sf9 membrane polyspecificity reagent, FACS + sequencing; frameworks hold sequencing errors
In short: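 Nanobodies from a synthetic yeast display library (Saccharomyces cerevisiae BJ5465), induced 36–48 hours with galactose, were stained 1 hour at 4 °C with 10% biotinylated, detergent-solubilized Sf9 membrane reagent, enriched on streptavidin microbeads, then FACS-sorted. Anti-HA (expression) and streptavidin (reagent binding) fluorescence set low and high (top ~1%) gates. Polyreactivity labels come from the gate of origin. Genes were colony-PCR amplified, MiSeq 2 × 250 sequenced and filtered by CDR length.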

Row | Sequence | polyreactivity (PSR sort gate)
1 | QVQLVESGGGLVQAGGSLLLSCAASGSTLFLYAMGWYRQAPGKERELVAGITYSGSTYADSVKGRFTISRDNAKNTVYFQMNSLKPEDTAVYYCAKDGYWNEEYSVGMDYWGQGTQVTVSS | low polyreactivity
2 | QVQLVESGGGLVQAGGSLRLSCAASGSTFDYYDMGWYRQAPGKERELVAAISYSGTSTYYADSVKGRFTISRDNAKNTVYLQMNSLKPEDTAVYYCAKVFPDWYWYDYWGQGTQVTVSS | low polyreactivity
3 | QVQLVESGGGLVQAGGSLRLSCAASGSIFWLYAMGWYRQAPGKERELVASITGGGSTNYADSVKGRFTISRDNAKNTVYLQMNSLKPEDTAVYYCAKRYYRPGRKRTGLDYWGQGTQVTVSS | high polyreactivity
4 | QVQLVESGGGLVQAGGSLRLSCAASGRTFRINAMGWYRQAPGKERELVAAINDGGDTYADSVKGRFTISRDNAKNTVYLQMNSLKPEDTAVYYCAVRILTNRWYYGYWGQGTQVTVSS | low polyreactivity
5 | QVQLVESWGGVVQAGGSLRLSCAASGRIFQHYAMGWYRQAPGKERELVAAISWRGGSTYYADSVKGRFTISRDNAKNTVFLQMNSLKPEDTAVYYCAAGYRGRIPGFDYWGQGTQVTVSS | high polyreactivity
6 | QVQLVESGGGLVQAGGSLRLSCAASGSTFGYYAMGWYRQATGKERELVAAISSGGSTSYADSVKGRFTISRDNAKNTVYLQMNSLKPEDTAVYYCNTSYRKKKRYYYWGQGTQVTVSS | high polyreactivity
7 | QVQLVESGGGLVQAGGSLRLSCVASGSISQTYAMGWYRQAPGKERELVAAISSSGASTYYADSVKGRFTISRDNAKNTVYLQMNSLKPEDTAVYYCNADKFRRYGYWGQGTQVTVSS | high polyreactivity
8 | QVQLVESGGGLVQAGGSLRLSCAASGRTFRVYAMGWYRQAPGKERELVAAISWSDGSTYYADSVKGRFTISRDYAKNTVYLQMNSLKPEDTAVYYCNARVRVPVTLHDYWGQCTQVTVSS | high polyreactivity
9 | QVQLVESGGGLVQAGGSLRLSCAASGFIFRYYAMGWYRQAPGKERELVAAISGSGGSTYYADSVKGRFTISRDNAKNTVYLQMNSLKPEDTAVYYCNKGRGRVYGIYDYWGQGTQVTVSS | high polyreactivity
10 | PVQLVESGGGLVQAGGSLRLSCAASGRIFSSYTMGWNIQAPGKERELVAAISWRGGSTYYADSVKGRFTISRDNAKNTVYLLMNSLKPEDTAVYYCAADSRSHPGDYWGHGTQVTVSS | low polyreactivity
11 | QVQLVESGGGLDLAGGSLRLSCAASGRTCGYNAMGWYRQAPGKERELVATISWGGGSTYYADSVKGRFTISRDNAKNSVYLQMNSLKPEDTAVYYCNKVHYGRRHSYSGAIYGEDYWGQGTQVTVSS | high polyreactivity
12 | QVQLVESGGGLVQAGGSLRLSCAASGRTFANNAMGSYRPAPGKAREWVASISITTSTYYADSVKGRFTISRDNAKITVYLQLNSLKPEDTPVYYCAAYYFIHAGPWEFDYWGQGTQVTVSS | low polyreactivity
13 | QVQLVESGGGLVQAGGSLRLSCAASGRIFNRYTMGWYRPAPGKEREFVAAISSRGGSTYYADSVKGRFTISRDNAKNTVDLQMYSLIPEDTAVYYCNKDYYWPLYAPYDSWGQGTRVTVSS | high polyreactivity
14 | QVQLVESGGGLVQAGGSLRLSCAASGRTFGIYAMGWYRQAPGKERELVAAISRGGNTYADSVKGRFTISRDNAKNSVYLQMNSLKPEDTAVYYCAADRRYRPGDYWGQGTQVTVSS | high polyreactivity
15 | QVQLVESGGGLVQAGGSLRLSCAASGNTFQDYAMGWYRQAPGKERELVAAITQSGGSTFYADSVKGRFTISRDNAKNTVYLQMNSLKPEDTAVYYCATRTRYPRYYYWGQGTQVTVSS | high polyreactivity
16 | QVQLVESGGGLVQAGGSLRLSCAASGSIFESNGMGCYRQAPGKERELVASISNGDITYFADSVKGRFTISRDNAKNTVYLQMNSLKPEDTAVYYCAATLYRNYVIFRYDYSGQGTQVTVSS | low polyreactivity
17 | QVQLVESGGGLVQAGGSLRLSCAASGFTFGYYGMGWYRQAPGKERELVAAISWSGGSTYYADSVKGRFTISRDNAKNTVYLQMNSLKPEDTAVDYCNADYAGFYQRRYIEDDYWGQGTQVTVSS | low polyreactivity
18 | QVQLVESGGGLVQAGGSLRLSCAASGRTFYSNAMGWYRQAPGKERELVAAITSTDDSTYYADSVKGRFTISRDNAKNTVNLQMYSLKPEYTAVYYCNTDGLIAIRGLWWFEFDYWGQGTQVTVSS | low polyreactivity
19 | QVQLVESGGGLVQAGGSLRLSCAASGFIFGYYAMGWYRQAPGKERELVAAINYNDDSTYYADSVKGRFTISRDNAKNTVYLQMNSLKPEDTAVYYCAARRFWPGNSYYYRYYYWGQGTQVTVSS | low polyreactivity
20 | QVQLVESGGGLVQAGGSLRLSCAASGSTFYSNAMGWYRQAPGKERELVAAITDGDRTNYADSVKGRFTISRDNAKNTVYLQMNSLKPEDTAVYYCAADYAVYLGVSPDYGYWGQGTQVTVSS | low polyreactivity
21 | QVQLVESGGGLVQAGGSLRLSCAASGSIFHDNAKGWYRQAPGKERELVAAINRGGSTHYADSVKGRFTISRDNAKNTVYLQMNSLKPEDTAVYYCNTVGRGYDYDYWGQGTQVTVSS | low polyreactivity
22 | QVQLVESGGGLVQAGGSLRLSCAASGRTFGVNTMGCYRQAPGKEREFVASISTSGGSTYADSVNGRFTISRDNAKNTVYLQMNSLKPEDTAVYYCAKDTDAVYDEYDSWGQGTQVTVSS | low polyreactivity

Row | Sequence | polyreactivity (PSR sort gate)
23 | QVQLVESGGGLVQAGGSLRLSCADYGFIMLYYALVCYRQAPGKERELVAAISWTGGRTYYADSVKGRFTISRDNAKNTVYLQMNSLKPEDTAVYFCNTVKLFGRKYGYWGQGTQVTVSS | low polyreactivity
24 | QVQLVESGGGLVQAGGSIRLSCAASGRTFGDYAMGWYRQAPGKERELVAAISSSGGRTYYADSVKGRFTISRDNAKNTVYLQMNSLKPEDTAVYYCAAQSKYYQYYSWGQGTQVTVSS | high polyreactivity
25 | QDQLVESAGGIVQAGGRLRLSCAASGTLYINVMGWYRQSPGKERELVAAISSNGARTYYADSVKGRFTISRDNAKNTVYLQMNSLKPEDTAVYYCDASFYFYSLYGYWGQGTQVTVSS | high polyreactivity
26 | QVQLVESGGGLVQAGGSLRLSCAASGNIFSFYTMGWYRQAPGKERELVAAISWSGTSTYYADSVKGRFTISRDNAKNTVYLQMNSLKPEDTAVYYCAAERWWSGYEYWGQGTQVTVSS | high polyreactivity
27 | QVQHVESGGGLVQAGGSLRLSCAASGRTITLNAMGWYRQAPGKERELVAAITWGAGSTYYADSVKGRFTISRDNAKNTVYLQMNSLKPEDTAVYYCAARFHGAYYRYRSPSMYYWGQGTQVTVSS | high polyreactivity
28 | QVQLVESGGGLVQAGGILRLSCAASGNILRFNARGWYRPAPGKEMELVAAISRSGGTTYYADSEKGRFTISRDYAKNTVYLQMNSLKPEDTAVYYCADRYRYGESPGYYWGHGTQVTVSS | high polyreactivity
29 | QVQLVESGGGLVQAGGSLRLSCAASGSTFNGYAIGWYRQAPGKERELVAAITWSGDSTYYADSVKGRFTISRDNAKNTVYLQMNSLKPEDTAVYYCAADDVKWDYDYWGQGTQVTVSS | low polyreactivity
30 | QVQLVESGGGLVQAGGSLRLSCAASGFIFRYYAMGWYRQAPGKERELVAAISWSGGSTYYADSVKGRFTISRDNAKNTVYLQMNSLKPEDTAVYYCNAVTTYGEYDYWGHGTQVTVSS | high polyreactivity
31 | QVQLVESGGGLVQAGGSLRLSCAASGSTFLANAMGWYRQAPGKEWELVATISSGGSTNYADSVKGRFTISRDNAKNTVYLQMNSLKPEDTAVYYCAAEYWYAWQEYGYWGQGTQVTVSS | low polyreactivity
32 | QVQLVESWGGLVLAGGRLRLSCAASGSTFPYNAMGWYRQAPGKERELVAVISQRGGSTYYADSLKGRFTISRDNAKNSVYLQMKSLKPEDTAVYYCAAEYIVTYGYDYWGQGTQVTVSS | high polyreactivity
33 | QVQLVESGGGLVQAGGSLRLSCAASGSTFQLYSMGWYRQAPGKERELVAAIRWRGGSTYYADSVKGRFTISRDNAKNTVYLQMNSLKPEDTAFYYCAAVGYNYNVEYYYWGQGTQVTVSS | high polyreactivity
34 | QVQLVESGGGLVQAGGSLRLICAASGSIFGWNAMGWYRQAPGKERELVASITWSGGRTYYADSVKGRFTISRDNAKNTVYLQMNSLKPEDTAVYYCAADYKPTSRSNKYYYWGQGTQVTVSS | high polyreactivity
35 | QVQLVESGGALVQAGGSLRLSCAASGSIFKKYAMGWYRPAPGKERELVAAITRGTYYADSVKGRFTISRVNAKNTVYLQMNSLKPEDTAVYYCNREYWGRGYYRVRGEYDYWGQGTQFTVSS | low polyreactivity
36 | QVQLVESGGGLVQAGGSLRLSCDASGRIFASNAMGWYRQAPGKERELVATIRRSGGSTYYADSVKGRFTISRDNAKNTVYLQMNSLKPEDTAVYYCNARMYGGYGWIYDYWRQGTQVTVSS | high polyreactivity
37 | QVQLVESGGGLVQAGGSLRLSCAASGTFYGNTMGWYRRPPGKERELVAVISIDGSTNYADSVKGRFTISRDNAKNTVYLQMNSLKPEDTAVYYCAADYWRQFRDYDYWGQGTQVTVSS | low polyreactivity
38 | QVQLVESGGGLVQAGGSRLSCAASGLIFIWYTMGWYRQAPGKERELVAAIDSSGGNTYYADSVKGRFTISRDNAKNTVYLQMNSLKPEDTAVYYCAKDVGHGAGNLMGYWGQGTQVTVSS | low polyreactivity
39 | QVQLVESGGGLVQAGGSLRLSCAASGRIFGVYAMGWYRQAPGKERELVADISWSADSTYYADSVKGRFTISRDNAKNTVYLQMNSLKPEDTAVYYCAADALFNVQNSRGYDYWGQGTQVTVSS | low polyreactivity
40 | QVQLVESGGGLVQAGGSLRLSCAASGRTFSVYAMGWYRQAPGKERELVATISWGGGITYYADSVKGRFTISRDNAKNTVYLQMNSLKPEDTAVYYCAAKRSLYPYYYWGQGTQVTVSS | high polyreactivity
41 | QVQLVESGGGLVQAGGSLRLSCAASGFTIGRYAMGWYRQAPGKERELVAAISKNGGRTYYADSVKGRFTISRDNAKNTVYLQMNSLKPEDTAVYYCNTDWYYTGRVHGFDYWGQGTQVTVSS | high polyreactivity
42 | QVQLVESGGGLVQAGGSLRLSCAASGRIFSRNAMGWYRQAPGKERELVAAISRSGTSTYYADSVKGRFTISRDNAKNTVYLQMNSLKPEDTAVYYCAADYPAVISIRRYDYWGQGTQVTVSS | low polyreactivity
43 | QEHLVESGGGLDQAGGRLRLSCAASGSIFAAYAMGWYRHAPGKERELVAAIKWTDGSTYYADSVKGRFTISRDIAMNTVYLQMNSLKPEDTAVYYCIRRQYGRKKQYDYWVQGTQVTVSS | high polyreactivity
